# Target: the molecule itself
# Assay: crystal structure
protein,measurement,value
"truncated mouse Bcs1 lacking the TM and Bcs1-specific domains (ΔNmBcs1, residues 151-418) (domain or fragment) not shown",stoichiometry N,7

# — publication PMC8482623 (Nature structural & molecular biology, 2020)
